What was measured:
[1] = test system: O=[N+]([O-])c1ccc(O[C@@H]2O[C@@H]([C@H](O)CO)[C@H](O)[C@H]2O)cc1; test: purified protein; settings: 37 °C, acetate buffer pH 4.5 (general assay; pH of the kinetics not stated)
[2] = biological target: T1, ORF1110 Galf-ase (ORF1110 protein) (Streptomyces sp. JHA19, UniProt A0A0K2SRV3); test: inhibition of pNP-β-D-Galf hydrolysis, pNP absorbance at […] nm; assay type: biochemical
T1 construct: recombinant from E. coli BL21(DE3)CodonPlus, pET50b, N-terminal 2xHis6 and Nus tags (cut by HRV3C for TLC only); ORF 786 aa; GH2 with C-terminal AbfB domain
T1 sequence (A0A0K2SRV3 46-786): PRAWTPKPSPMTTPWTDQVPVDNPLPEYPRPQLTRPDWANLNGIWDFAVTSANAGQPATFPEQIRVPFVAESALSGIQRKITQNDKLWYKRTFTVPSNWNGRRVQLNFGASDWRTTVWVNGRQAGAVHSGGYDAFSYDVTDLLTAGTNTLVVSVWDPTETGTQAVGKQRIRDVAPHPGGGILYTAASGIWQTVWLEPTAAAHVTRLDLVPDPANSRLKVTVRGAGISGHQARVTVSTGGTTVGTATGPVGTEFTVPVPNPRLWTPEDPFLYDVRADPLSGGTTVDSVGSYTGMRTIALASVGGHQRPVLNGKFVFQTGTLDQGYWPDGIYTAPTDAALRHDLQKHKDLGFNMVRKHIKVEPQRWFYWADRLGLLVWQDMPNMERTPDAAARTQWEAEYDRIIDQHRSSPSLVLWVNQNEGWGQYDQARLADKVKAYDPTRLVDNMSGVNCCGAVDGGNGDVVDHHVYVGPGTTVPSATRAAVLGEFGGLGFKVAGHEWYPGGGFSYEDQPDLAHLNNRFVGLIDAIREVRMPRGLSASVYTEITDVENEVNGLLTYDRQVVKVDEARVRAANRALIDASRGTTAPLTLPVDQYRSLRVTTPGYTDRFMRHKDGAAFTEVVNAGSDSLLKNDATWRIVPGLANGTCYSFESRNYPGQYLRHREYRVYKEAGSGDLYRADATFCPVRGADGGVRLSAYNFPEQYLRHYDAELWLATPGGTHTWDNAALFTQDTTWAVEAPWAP

Row | Compound | Km [1] | Ki [2]
1 | ORF1110 Galf-ase (ORF1110 protein) (Streptomyces sp. JHA19) | 4.4 mM | 
2 | O=C1O[C@@H](CO)[C@H](O)[C@H]1O [L-arabino-1,4-lactone] |  | 51 mM

Reference: paper PMC4560423, “Identification and Characterization of a Novel Galactofuranose-Specific β-D-Galactofuranosidase from Streptomyces Species” (PLoS ONE, 2015)
